Source: patent US20100196361A1, “Method of inhibition of vascular development using an antibody” (DYAX CORP., priority 2003, published 2010)
Positions count from the first letter of the chain named. One block for each molecule: values may come before it.

Experiments:
Tie1 = Tie1 (Homo sapiens, UniProt P35590); assay: Competition with E3 for binding to Tie1
[1] = target: T1, human Tie1-Fc fusion protein (Homo sapiens, UniProt P35590); assay: BIAcore 3000 affinity analysis of Fab and IgG; assay type: binding
T1 construct: selected against the Tie1 extracellular domain fused to human Fc or to a histidine purification tag
T1 sequence (P35590 22-759 limits assumed): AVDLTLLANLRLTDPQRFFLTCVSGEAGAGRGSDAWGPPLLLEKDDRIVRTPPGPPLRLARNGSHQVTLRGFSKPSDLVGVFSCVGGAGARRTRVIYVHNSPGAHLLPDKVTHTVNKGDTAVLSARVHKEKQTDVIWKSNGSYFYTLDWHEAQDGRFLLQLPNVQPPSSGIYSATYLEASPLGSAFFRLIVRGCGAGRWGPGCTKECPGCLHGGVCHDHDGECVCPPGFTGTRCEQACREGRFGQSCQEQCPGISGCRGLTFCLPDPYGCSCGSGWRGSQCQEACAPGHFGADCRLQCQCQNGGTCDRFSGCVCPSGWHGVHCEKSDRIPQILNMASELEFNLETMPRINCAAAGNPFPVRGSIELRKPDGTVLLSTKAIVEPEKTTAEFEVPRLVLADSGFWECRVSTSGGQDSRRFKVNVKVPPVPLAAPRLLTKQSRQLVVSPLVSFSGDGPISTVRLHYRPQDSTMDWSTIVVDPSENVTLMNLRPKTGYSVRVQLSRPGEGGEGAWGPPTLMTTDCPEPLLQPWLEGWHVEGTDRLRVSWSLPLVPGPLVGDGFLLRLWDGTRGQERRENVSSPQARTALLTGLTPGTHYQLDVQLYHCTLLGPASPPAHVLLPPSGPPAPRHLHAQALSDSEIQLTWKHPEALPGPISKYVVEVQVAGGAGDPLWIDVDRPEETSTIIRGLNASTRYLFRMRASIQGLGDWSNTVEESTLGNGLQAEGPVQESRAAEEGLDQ
Description: Affinity analysis of the Fab and IgGs was performed using surface plasmon resonance using a BIAcore 3000 instrument. For this analysis both dimeric (Tie1-Fc fusion protein) and monomeric (Tie1-HIS) versions of the extracellular domain of the Tie1 were used. The sensor chips used in these experiments were CM5 (dextran-coated) which allow immobilization of proteins to the chip via standard amine coupling chemistries. The concentration of flowed antibody was determined using a surface plasmon resonance based method. Using a high-density protein A sensor chip, under mass transport limited conditions, the response signal is dependent only on the concentration of the antibody in the sample under test. This approach allows a precise determination of the antibody concentration, a parameter important for accurate determination of the KD.
470 RUs of Tie1 HIS protein were coated on a CM5 sensor chip and 5, 20, 100, and 500 nM of the Fab flowed over the chip at four different flow rates ([…]), rates in which the system is not mass transport limited. Kinetic data was typically determined using a range of analyte concentrations and three different chip coating densities. The data from the lowest coating density that gave a good signal was typically chosen, this was often in a range from 50-100 RUs. Using such low coating densities allowed the sensor curves to be fit using BIAEVALUATION™ 3.0 software to a 1:1 model, often even when using a bivalent analyte (IgG or Tie1-Fc fusion protein). For bivalent analytes, when fit to a 1:1 model was not possible, the curves were fit using a 2:1 model.
The anti-Tie1 antibodies described here bind to both human and mouse Tie1 molecules. The binding of the anti-Tie1 Fab to mouse Tie1-Fc fusion protein was compared with the binding of the anti-Tie1 Fab to human Tie1-Fc fusion protein. In both of these experiments the Tie1-Fc fusion protein was immobilized on the sensor chip and the anti Tie-1 Fab served as the analyte. Under these experimental conditions the anti-Tie1 Fab has very similar KD (˜3 nM) values for both the human and mouse Tie1-Fc fusion proteins (Table 9). Under conditions that are likely to mimic those used in the animal efficacy experiments, i.e. Tie1-Fc immobilized to the CM5 sensor chip and anti-Tie1 used as the analyte, the measured KD was 0.2 nM.

human Tie1 Fc = target: T2, human Tie1 Fc (Homo sapiens, UniProt P35590); assay: BIAcore, Fab over Tie1/Fc coated on CM5 chip; assay type: binding; details: Fab analyte
T2 construct: selected against the Tie1 extracellular domain fused to human Fc or to a histidine purification tag
T2 sequence (P35590 22-759 limits assumed): T1 sequence (P35590 22-759 limits assumed)
Excerpt: To evaluate if the binding behaviour had been affected in any way by the conversion of the somatic mutations back to germline residues, the parental and the germlined E3b antibodies were produced and tested in Biacore as Fab fragments. Here, by contrast to what was done for the IgGs (see Example 28), and in order to measure a monovalent interaction, the Fabs were run over the antigen directly coated onto the surface.
Recombinant human Tie1/Fc was coated on a CM5 chip. The surface of the chip was first activated with a 7-minute pulse of 0.05 M NHS/0.2 M EDC, then Tie1/Fc (2 μg/ml in 10 mM sodium acetate, pH 4.0) was run over the chip surface until 750 RUs were coated on the surface. All flow cells were subsequently deactivated with a 7-minute pulse of 1 M ethanolamine hydrochloride, pH 8.5. All further experiments were performed in HBS buffer.
The parental and the germlined E3b Fabs were prepared. A series of dilution (50, 25, 12.5, 6.25 and 3.125 nM) was prepared in HBS buffer. Samples were injected at 30 μl/min for 5.3 minutes using the KINJECT™ program. This was followed by a 10-minute dissociation phase, and the remaining Fab was stripped from the surface with a single 18-sec injection of 50 mM NaOH/1 M NaCl.
Sensorgrams were analyzed using the simultaneous ka/kd fitting program from the BIAEVALUATION™ software 3.1 assuming a 1:1 model.

Chain of Tie1 (P35590 22-1138): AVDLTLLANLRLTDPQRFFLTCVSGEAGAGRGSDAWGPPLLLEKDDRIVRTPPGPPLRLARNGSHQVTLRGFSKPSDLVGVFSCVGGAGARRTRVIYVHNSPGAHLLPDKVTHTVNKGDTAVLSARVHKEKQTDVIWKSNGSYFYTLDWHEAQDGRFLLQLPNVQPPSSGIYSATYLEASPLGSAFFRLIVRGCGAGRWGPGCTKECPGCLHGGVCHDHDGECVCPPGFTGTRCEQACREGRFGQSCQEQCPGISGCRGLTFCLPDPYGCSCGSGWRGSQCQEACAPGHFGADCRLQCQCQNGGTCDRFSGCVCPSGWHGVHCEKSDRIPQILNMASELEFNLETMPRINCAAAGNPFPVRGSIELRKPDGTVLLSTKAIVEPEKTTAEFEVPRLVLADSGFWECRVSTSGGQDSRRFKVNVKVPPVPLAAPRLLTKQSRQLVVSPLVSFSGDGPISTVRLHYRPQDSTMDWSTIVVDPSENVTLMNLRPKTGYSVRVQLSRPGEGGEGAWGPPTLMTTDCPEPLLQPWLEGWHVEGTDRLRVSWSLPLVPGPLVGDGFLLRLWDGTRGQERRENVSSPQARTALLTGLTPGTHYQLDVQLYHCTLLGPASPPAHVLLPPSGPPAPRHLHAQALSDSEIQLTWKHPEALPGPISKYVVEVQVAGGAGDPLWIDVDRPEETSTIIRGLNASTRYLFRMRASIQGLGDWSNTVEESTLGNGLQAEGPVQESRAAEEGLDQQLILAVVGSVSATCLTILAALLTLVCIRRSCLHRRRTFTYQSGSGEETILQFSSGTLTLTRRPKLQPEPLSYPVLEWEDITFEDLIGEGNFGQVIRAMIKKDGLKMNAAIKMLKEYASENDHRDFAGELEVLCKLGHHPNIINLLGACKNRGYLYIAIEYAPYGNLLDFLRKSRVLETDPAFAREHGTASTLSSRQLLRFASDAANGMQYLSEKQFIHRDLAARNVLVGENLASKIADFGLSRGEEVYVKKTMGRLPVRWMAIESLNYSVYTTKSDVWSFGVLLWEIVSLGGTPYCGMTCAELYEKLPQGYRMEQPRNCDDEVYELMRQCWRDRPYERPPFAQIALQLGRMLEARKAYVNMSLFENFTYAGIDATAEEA

B1: M0055E10: Tie1-binding antibody; LC SEQ ID NO:492, HC SEQ ID NO:494 (antibody, V domains shown)
VH: EVQLLESGGGLVQPGGSLRLSCAASGFTFSAYPMFWVRQAPGKGLEWVSVISPSGGQTSYADSVKGRFTISRDNSKNTLYLQMNSLRAEDTAVYYCAKSFSGLAALDFWGQGTLVTVSS
VL: QDIQMTQSPATLSLSPGERATLSCRASQSVRTYLGWYQQKHGQAPRLLIYDASNRATGIPARFSGSGSGTDFTLTISSLEPEDFAVYYCQQRSNWPLTFGGGTKVEIK
modifications: Antibody
competition with E3 for binding to Tie1 (Tie1): competes with E3 for binding to Tie1

B3: M0054H10: Tie1-binding antibody; LC SEQ ID NO:448, HC SEQ ID NO:450 (antibody, V domains shown)
VH: EVQLLESGGGLVQPGGSLRLSCAASGFTFSQYPMIWVRQAPGKGLEWVSVISPSGGHTSYADSVKGRFTISRDNSKNTLYLQMNSLRAEDTAVYYCARIQYYGGAFDIWGQGKMVTVSS
VL: B1 VL with R31S, T32I, G35A, H41P, G58D, N94S, L97I, G101L, K104R, V105L
modifications: Antibody
competition with E3 for binding to Tie1 (Tie1): competes with E3 for binding to Tie1

The remaining lines, values ahead:

competition with E3 for binding to Tie1 (Tie1): competes with E3 for binding to Tie1
B2: M0060H01: Tie1-binding antibody; LC SEQ ID NO:628, HC SEQ ID NO:630 (antibody, V domains shown)
VH: EVQLLESGGGLVQPGGSLRLSCAASGFTFSYYPMVWVRQAPGKGLEWVSVIVPSGGFTAYADSVKGRFTISRDNSKNTLYLQMNSLRAEDTAMYYCARKRPGNAFDIWGQGTMVTVSS
VL: B1 VL with R31S, T32S, G35A, H41P, L97V, G101Q, K104R, V105L
modifications: Antibody

Kon [1]: 9300 M⁻¹ s⁻¹
koff [1]: 4.41e-05 s⁻¹
koff (human Tie1 Fc; Human Tie1 Fc coated on CM5): 0.00101 s⁻¹
kon (human Tie1 Fc; Human Tie1 Fc coated on CM5, 750 RU): 136000 M⁻¹ s⁻¹
B4: E3b Fab: Fab with germlined HC and germlined LC sequence of E3 (antibody, V domains shown)
VH: EVQLLESGGGLVQPGGSLRLSCAASGFTFSMYGMVWVRQAPGKGLEWVSVISPSGGNTGYADSVKGRFTISRDNSKNTLYLQMNSLRAEDTAVYYCARAPRGYSYGYYYWGQGTLVTVSS
VL: DIQMTQSPSSLSASVGDRVTITCRASQGIGHYLAWYQQKPGKVPKLLIYTASTLQSGVPSRFSGSGSGTDFTLTISSLQPEDVATYYCQQFNSYPHTFGQGTRLEIK

competition with E3 for binding to Tie1 (Tie1): competes with E3 for binding to Tie1
B5: M0058F03: Tie1-binding antibody; LC SEQ ID NO:604, HC SEQ ID NO:606 (antibody, V domains shown)
VH: EVQLLESGGGLVQPGGSLRLSCAASGFTFSDYGMAWVRQAPGKGLEWVSVISPSGGQTAYADSVKGRFTISRDNSKNTLYLQMNSLRAEDTAVYYCATVRWFGAFDYWGQGTLVTVSS
VL: QDIQMTQSPSTLSASVGDRVTITCRASQGISNYLAWYQQKPGKVPKLLIYGASNLQSGVSSRFSGSGSATDFTLTISSLQPEDFATYYCQQFNSYPLTFGGGTKVEIK
modifications: Antibody
